In the supplement of paper PMC10567573:

B1: HESX1 (parent)
chain: ENKPSTCSFSIERILGLDQKKDCV
B2: EFHC1 (parent)
chain: NIYYYLEDDSMSVIEPVVENSGIL

Variants of: B1
Assay: protein stability index of a GFP-peptide fusion (GPS, HEK-293T) (PSI 1-6); higher = more stable
Conditions: c terminus: a fixed tail appended
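Further: lentivirally expressed fusions sorted by FACS into six bins by GFP to DsRed ratio, PSI derived from sequencing read proportions per bin multiplied by bin number.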

| Variant | protein stability index |
| --- | --- |
| ENKPSTCSFSIERILELDQKKDCV | 3.27 |
| ENKPSTCSFSIERILSLDQKKDCV | 3.28 |
| ENKPSTCSFSIERILNLDQKKDCV | 3.41 |
| ENKPSTCSFSIERILMLDQKKDCV | 2.92 |
| ENKPSTCSFSIERILYLDQKKDCV | 2.28 |
| ENKPSTCSFSIERILLLDQKKDCV | 2.43 |
| ENKPSTCSFSIERILCLDQKKDCV | 2.83 |
| ENKPSTCSFSIERILQLDQKKDCV | 3.76 |
| ENKPSTCSFSIERILVLDQKKDCV | 3.15 |
| ENKPSTCSFSIERILDLDQKKDCV | 3.74 |
| ENKPSTCSFSIERILHLDQKKDCV | 2.83 |
| ENKPSTCSFSIERILILDQKKDCV | 2.63 |
| ENKPSTCSFSIERILRLDQKKDCV | 2.23 |
| ENKPSTCSFSIERILPLDQKKDCV | 3.75 |
| ENKPSTCSFSIERILALDQKKDCV | 3.2 |
| ENKPSTCSFSIERILTLDQKKDCV | 3.69 |
| ENKPSTCSFSIERILWLDQKKDCV | 2.32 |
| ENKPSTCSFSIERILKLDQKKDCV | 2.9 |
| ENKPSTCSFSIERILFLDQKKDCV | 2.49 |
| ENKPSTCSFSIERILGWDQKKDCV | 2.82 |
| ENKPSTCSFSIERILGTDQKKDCV | 3.78 |
| ENKPSTCSFSIERILGGDQKKDCV | 3.83 |
| ENKPSTCSFSIERILGADQKKDCV | 4 |
| ENKPSTCSFSIERILGVDQKKDCV | 4.2 |
| ENKPSTCSFSIERILGCDQKKDCV | 3.22 |

| Variant | protein stability index |
| --- | --- |
| ENKPSTCSFSIERILGSDQKKDCV | 3.86 |
| ENKPSTCSFSIERILGEDQKKDCV | 4.25 |
| ENKPSTCSFSIERILGIDQKKDCV | 3.31 |
| ENKPSTCSFSIERILGPDQKKDCV | 4.69 |
| ENKPSTCSFSIERILGKDQKKDCV | 4.04 |
| ENKPSTCSFSIERILGYDQKKDCV | 2.56 |
| ENKPSTCSFSIERILGDDQKKDCV | 4.4 |
| ENKPSTCSFSIERILGMDQKKDCV | 2.11 |
| ENKPSTCSFSIERILGQDQKKDCV | 3.59 |
| ENKPSTCSFSIERILGFDQKKDCV | 2.91 |
| ENKPSTCSFSIERILGNDQKKDCV | 4.42 |
| ENKPSTCSFSIERILGHDQKKDCV | 3.53 |
| ENKPSTCSFSIERILGLDQKKTCV | 2.02 |
| ENKPSTCSFSIERILGLDQKKICV | 1.94 |
| ENKPSTCSFSIERILGLDQKKACV | 2.51 |
| ENKPSTCSFSIERILGLDQKKWCV | 1.46 |
| ENKPSTCSFSIERILGLDQKKYCV | 2.14 |
| ENKPSTCSFSIERILGLDQKKHCV | 2.04 |
| ENKPSTCSFSIERILGLDQKKNCV | 2.9 |
| ENKPSTCSFSIERILGLDQKKVCV | 1.56 |
| ENKPSTCSFSIERILGLDQKKRCV | 3.08 |
| ENKPSTCSFSIERILGLDQKKSCV | 3.41 |
| ENKPSTCSFSIERILGLDQKKFCV | 2.1 |
| ENKPSTCSFSIERILGLDQKKLCV | 1.5 |
| ENKPSTCSFSIERILGLDQKKQCV | 2.73 |

| Variant | protein stability index |
| --- | --- |
| ENKPSTCSFSIERILGLDQKKECV | 3.24 |
| ENKPSTCSFSIERILGLDQKKMCV | 1.77 |
| ENKPSTCSFSIERILGLDQKKPCV | 3.08 |
| ENKPSTCSFSIERILGLDQKKGCV | 2.78 |
| ENKPSTCSFSIERILGLDQKKCCV | 2.12 |
| ENKPSTCSFSIERILGLDQKKKCV | 2.73 |
| ENKPSTCSFSIERILGLDQTKDCV | 2.53 |
| ENKPSTCSFSIERILGLDQDKDCV | 3.27 |
| ENKPSTCSFSIERILGLDQMKDCV | 2.67 |
| ENKPSTCSFSIERILGLDQSKDCV | 2.69 |
| ENKPSTCSFSIERILGLDQPKDCV | 2.75 |
| ENKPSTCSFSIERILGLDQVKDCV | 2.25 |
| ENKPSTCSFSIERILGLDQRKDCV | 2.41 |
| ENKPSTCSFSIERILGLDQHKDCV | 2.47 |
| ENKPSTCSFSIERILGLDQCKDCV | 2.52 |
| ENKPSTCSFSIERILGLDQLKDCV | 1.93 |
| ENKPSTCSFSIERILGLDQIKDCV | 2.13 |
| ENKPSTCSFSIERILGLDQWKDCV | 1.62 |
| ENKPSTCSFSIERILGLDQEKDCV | 3.08 |
| ENKPSTCSFSIERILGLDQFKDCV | 2.22 |
| ENKPSTCSFSIERILGLDQQKDCV | 2.56 |
| ENKPSTCSFSIERILGLDQYKDCV | 1.97 |
| ENKPSTCSFSIERILGLDQAKDCV | 2.45 |
| ENKPSTCSFSIERILGLDQNKDCV | 2.71 |

Variants of: B2
Assay: as above
Conditions: c terminus: a fixed tail appended

| Variant | protein stability index |
| --- | --- |
| QIYYYLEDDSMSVIEPVVENSGIL | 2.83 |
| HIYYYLEDDSMSVIEPVVENSGIL | 1.74 |
| TIYYYLEDDSMSVIEPVVENSGIL | 1.4 |
| YIYYYLEDDSMSVIEPVVENSGIL | 1.81 |
| CIYYYLEDDSMSVIEPVVENSGIL | 1.54 |
| SIYYYLEDDSMSVIEPVVENSGIL | 2.19 |
| PIYYYLEDDSMSVIEPVVENSGIL | 2.15 |
| EIYYYLEDDSMSVIEPVVENSGIL | 2.48 |
| AIYYYLEDDSMSVIEPVVENSGIL | 2.06 |
| DIYYYLEDDSMSVIEPVVENSGIL | 1.59 |
| LIYYYLEDDSMSVIEPVVENSGIL | 1.92 |
| MIYYYLEDDSMSVIEPVVENSGIL | 2.34 |
| FIYYYLEDDSMSVIEPVVENSGIL | 2.88 |
| GIYYYLEDDSMSVIEPVVENSGIL | 2.08 |
| KIYYYLEDDSMSVIEPVVENSGIL | 1.09 |
| RIYYYLEDDSMSVIEPVVENSGIL | 1.32 |
| WIYYYLEDDSMSVIEPVVENSGIL | 1.61 |
| NCYYYLEDDSMSVIEPVVENSGIL | 2.29 |
| NDYYYLEDDSMSVIEPVVENSGIL | 2.62 |
| NAYYYLEDDSMSVIEPVVENSGIL | 2.86 |
